# Assay results from patent US20250011363A1, “OPTIMIZED SHORTENED PEPTIDE THAT BINDS TO ACETYLCHOLINE RECEPTOR, AND USE THEREOF” (SKINMED CO., LTD., priority 2021, published 2025).
# Molecular target: acetylcholine receptor
# Test: SPR, AchR immobilised on chip, peptide at 10 uM
row,Binding affinity [RU],Binder
1,149,KGQRKK [6mer-2-281]
2,141,RLRSKK [6mer-2-307]
3,145,KVRYKK [6mer-2-295]
4,139,KRRYKK [6mer-2-286]
5,139,KGIRRR [6mer-2-316]
6,151,KRRRRR [6mer-2-309]
7,121,RQLCKR [6mer-2-292]
8,135,KLITRR [6mer-2-275]
9,122,KSRLRK [6mer-2-288]
10,135,RQIQKK [6mer-2-278]
11,131,KLRQRR [6mer-2-273]
12,154,KWRSRK [6mer-2-272]
13,131,RLFQKK [6mer-2-271]
14,153,RWRLKK [6mer-2-300]
15,148,KQICKK [6mer-2-302]
16,126,KVFTKR [6mer-2-303]
17,135,RGLYKR [6mer-2-317]
18,149,KWICKK [6mer-2-298]
19,148,KSRLRR [6mer-2-270]
20,148,KSLQRK [6mer-2-279]
21,127,KQYCKK [6mer-2-314]
22,145,RGIQKK [6mer-2-318]

# The remaining lines, values behind:
row,Binder,Binding affinity [RU]
1,RQFQKR [6mer-2-306],141
2,RLYLKR [6mer-2-287],124
3,RQLYRK [6mer-2-290],135
4,RLVCRK [6mer-2-276],153
5,KGISKR [6mer-2-308],148
6,RRYRKR [6mer-2-291],154
7,RRIQRR [6mer-2-285],142
8,KLYYRR [6mer-2-294],135
9,KLFQRK [6mer-2-310],149
10,RLRYRK [6mer-2-277],128
11,KLISKR [6mer-2-283],148
12,KQQSKR [6mer-2-293],153
13,RSLSRR [6mer-2-297],139
14,RWYYRK [6mer-2-299],141
15,RRQRRR [6mer-2-315],139
16,KSIYRR [6mer-2-280],153
17,KWVQRK [6mer-2-269],123
18,RQVRKR [6mer-2-301],122
19,RLLQKK [6mer-2-289],146
20,KVVTRK [6mer-2-311],147
21,RQQYRK [6mer-2-282],151
22,KLRSKR [6mer-2-284],151
23,KLRTKR [6mer-2-274],148
24,KQFYKK [6mer-2-305],154
25,KWYRRK [6mer-2-296],135
26,KWRTKR [6mer-2-312],121
27,KWFYRK [6mer-2-304],144
28,RWRTKR [6mer-2-313],154

# Molecular target: acetylcholine receptor
# Test: SPR, AchR immobilised on CM5 chip, peptide at 10 uM
row,Binding affinity (RU),Binder
1,153,KRSFRK [6mer-1-463]
2,121,KRRQTK [6mer-1-439]
3,124,RKVLRR [6mer-1-454]
4,148,RRGFYR [6mer-1-460]
5,139,RKGQLK [6mer-1-1458]
6,151,RKVVYK [6mer-1-450]
7,121,RKLLCR [6mer-1-457]
8,142,RRGYTR [6mer-1-461]
9,131,RRWVYK [6mer-1-459]
10,144,KKWILK [6mer-1-444]
11,153,RKVRLR [6mer-1-451]

# Second part, the binder before the results:
row,Binder,Binding affinity (RU)
1,KRGYQK [6mer-1-467],121
2,RRVIRR [6mer-1-446],124
3,RKQILK [6mer-1-462],126
4,KRVYSK [6mer-1-440],153
5,KRLYTR [6mer-1-452],141
6,KKWQQK [6mer-1-453],154
7,RKVLLK [6mer-1-443],145
8,RKLQYK [6mer-1-442],131
9,RRVYYR [6mer-1-441],146
10,RRVFYK [6mer-1-455],126
11,RRQRLK [6mer-1-464],131
12,RKRFSR [6mer-1-448],141
13,KRVRLR [6mer-1-445],145
14,KRSICR [6mer-1-466],148
15,RRGQYR [6mer-1-456],153
16,RRRQQK [6mer-1-447],146
17,RKQVYK [6mer-1-465],154
18,KRGRCK [6mer-1-449],135
